Experimental data reported in PMC6910952 (Nature Communications, 2019).

Target: T1, GST-yNpl4 I575A (Saccharomyces cerevisiae, UniProt P33755 1-580, I575A)
T1 construct: Npl4 of Saccharomyces cerevisiae (yNpl4), full length; source: E. coli Rosetta (DE3) (pGEX-6P1), purified (Glutathione Sepharose FF, Resource Q); not shown: GST, N-terminal, kept
T1 sequence (looked up): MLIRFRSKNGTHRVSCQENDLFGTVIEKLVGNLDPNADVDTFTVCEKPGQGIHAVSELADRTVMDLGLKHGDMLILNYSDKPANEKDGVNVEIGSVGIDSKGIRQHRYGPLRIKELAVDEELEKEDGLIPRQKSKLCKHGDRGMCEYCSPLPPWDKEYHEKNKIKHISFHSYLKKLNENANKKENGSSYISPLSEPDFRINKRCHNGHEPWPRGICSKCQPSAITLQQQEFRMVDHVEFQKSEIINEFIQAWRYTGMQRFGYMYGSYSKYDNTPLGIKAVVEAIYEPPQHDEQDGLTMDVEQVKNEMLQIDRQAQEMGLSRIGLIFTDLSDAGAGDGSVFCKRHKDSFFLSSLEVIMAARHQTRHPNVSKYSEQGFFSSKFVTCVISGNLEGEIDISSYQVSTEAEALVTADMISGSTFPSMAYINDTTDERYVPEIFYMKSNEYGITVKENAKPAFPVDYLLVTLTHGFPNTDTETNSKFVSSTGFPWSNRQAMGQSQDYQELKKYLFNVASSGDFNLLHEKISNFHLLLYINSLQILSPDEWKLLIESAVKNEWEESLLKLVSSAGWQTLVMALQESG
Test: pull-down; GST-yNpl4 (0.5 μM, wild type or mutant) on Glutathione Sepharose 4B beads, 1 h at room temperature with 0.5 μM yUfd1, 3 μM Cdc48 (0.5 μM hexamer) and 1 μg K48 chains in 100 μL 50 mM Tris-HCl pH 7.5, 100 mM NaCl, 10% glycerol, 0.1% Triton X-100; chains detected by anti-Ub immunoblot, proteins by Ponceau S
Settings: both partners purified

- binding result: binds
B1: yUfd1 (full length, untagged) (natural protein, Saccharomyces cerevisiae, UniProt P53044 1-361, looked up)
chain: MFSGFSSFGGGNGFVNMPQTFEEFFRCYPIAMMNDRIRKDDANFGGKIFLPPSALSKLSMLNIRYPMLFKLTANETGRVTHGGVLEFIAEEGRVYLPQWMMETLGIQPGSLLQISSTDVPLGQFVKLEPQSVDFLDISDPKAVLENVLRNFSTLTVDDVIEISYNGKTFKIKILEVKPESSSKSICVIETDLVTDFAPPVGYVEPDYKALKAQQDKEKKNSFGKGQVLDPSVLGQGSMSTRIDYAGIANSSRNKLSKFVGQGQNISGKAPKAEPKQDIKDMKITFDGEPAKLDLPEGQLFFGFPMVLPKEDEESAAGSKSSEQNFQGQGISLRKSNKRKTKSDHDSSKSKAPKSPEVIEID
notes: Ufd1 of Saccharomyces cerevisiae (yUfd1), full length; codon-optimized synthetic cDNA; removal of GST by HRV3C is surmised; also called untagged Ufd1; source: E. coli Rosetta (DE3) (pGEX-6P1), purified
